According to patent US20140024592A1, “Modified Relaxin Polypeptides” (Howard Florey Institute of Experimental Physiology and …, priority 2010, published 2014):
No end group written: not given here.

B1: human INSL5 (ligand)
chain 1: QDLQTLCCTDGCSMTDLSALC
chain 2: KESVRLCGLEYIRTVIYICASSRW
notes: mature; Native receptor ligand used as comparator at RXFP4; also called hINSL5; native INSL5
B2: analogue 18 (peptide)
chain 1: CKWGASKSEISSLC
chain 2: RLCGREFIRAVIFTCGGSRW
notes: Synthetic
B3: analogue 15 (peptide)
chain 1: CKWGASKSEISSLC
chain 2: RAAPYGVRLCGREFIRAVIFTCGGSRW
modifications: disulfide (positions not given here)
notes: Synthetic; two inter-chain disulphides, no intra-A-chain disulphide; also called [R3A(11-24,C15→A)B]; RXFP3-selective agonist, analogue 2
B4: analogue 17 (peptide)
chain 1: CKWGASKSEISSLC
chain 2: GVRLCGREFIRAVIFTCGGSRW
notes: Synthetic
B5: native human relaxin-3 (H3 relaxin) (ligand)
chain 1: DVLAGLSSSCCKWGCSKSEISSLC
chain 2: RAAPYGVRLCGREFIRAVIFTCGGSRW
modifications: disulfide (positions not given here); also: one intra-A-chain and two inter-chain disulphide bonds, places not given here
notes: Two-chain peptide; one intra-A-chain and two inter-chain disulphide bonds; also called native relaxin-3
B6: analogue 14 (peptide)
chain 1: DVLAGLSSSACKWGASKSEISSLC
chain 2: RAAPYGVRLCGREFIRAVIFTCGGSRW
modifications: disulfide (positions not given here)
notes: Synthetic; no intra-A-chain disulphide, two inter-chain disulphides kept
B7: analogue 19 (peptide)
chain 1: CKWGASKSEISSLC
chain 2: CGREFIRAVIFTCGGSRW
notes: Synthetic

Tests used:
[1] = tested on: human dermal fibroblasts (BJ3 cells) which express RXFP1; assay: TGF-β1-induced collagen expression in human dermal fibroblasts (hydroxyproline content); format: cell-based; details: TGF-β1 2 ng/mL plus peptide 100 ng/mL, 72 hr
Experimental: The deposited collagen into the cell layer was hydrolysed and analysed for hydroxyproline content, as previously described (Samuel et al., 1996, Endocrinology 137:3884-3890). Hydroxyproline values were then converted to total collagen content by multiplying by a factor of 6.94 (based on hydroxyproline representing approximately 14.4% of the amino acid composition of collagen in most mammalian tissues). These experiments were performed 3-4 separate times in duplicate.

RXFP1 receptor [2] = molecular target: T1, RXFP1 receptor (UniProt Q9HBX9 1-757, limits assumed); assay: cell-based or functional assay
T1 sequence (looked up): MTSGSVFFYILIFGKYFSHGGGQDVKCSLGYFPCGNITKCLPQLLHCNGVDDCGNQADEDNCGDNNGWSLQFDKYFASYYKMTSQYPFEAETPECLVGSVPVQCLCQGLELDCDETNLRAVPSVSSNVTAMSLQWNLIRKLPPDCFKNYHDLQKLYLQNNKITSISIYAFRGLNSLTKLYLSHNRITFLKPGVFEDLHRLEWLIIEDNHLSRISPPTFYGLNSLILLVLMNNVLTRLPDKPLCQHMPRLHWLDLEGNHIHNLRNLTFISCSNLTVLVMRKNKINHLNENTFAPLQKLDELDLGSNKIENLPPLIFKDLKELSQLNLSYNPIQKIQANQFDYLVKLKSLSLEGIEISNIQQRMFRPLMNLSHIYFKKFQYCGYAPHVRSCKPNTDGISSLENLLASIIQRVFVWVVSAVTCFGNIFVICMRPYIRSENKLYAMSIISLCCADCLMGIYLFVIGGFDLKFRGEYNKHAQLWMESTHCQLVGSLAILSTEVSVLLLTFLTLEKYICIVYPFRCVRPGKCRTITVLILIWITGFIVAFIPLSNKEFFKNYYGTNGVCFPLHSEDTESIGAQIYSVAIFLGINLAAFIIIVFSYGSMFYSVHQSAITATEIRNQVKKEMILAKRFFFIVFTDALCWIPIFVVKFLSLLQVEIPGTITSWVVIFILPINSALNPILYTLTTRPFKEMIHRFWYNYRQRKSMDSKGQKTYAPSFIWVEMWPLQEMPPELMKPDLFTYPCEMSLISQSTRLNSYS

RXFP3 = molecular target: T2, RXFP3 (Homo sapiens, UniProt Q9NSD7); assay: Inhibition of forskolin-induced cAMP accumulation in RXFP3 expressing CHO-K1 cells (cAMP reporter gene assay); format: cell-based; details: CHO-K1, read-out: forskolin-induced cAMP production inhibited to
T2 construct: expressed in transfected cells; host or cells: CHO-K1
T2 sequence (Q9NSD7 1-469): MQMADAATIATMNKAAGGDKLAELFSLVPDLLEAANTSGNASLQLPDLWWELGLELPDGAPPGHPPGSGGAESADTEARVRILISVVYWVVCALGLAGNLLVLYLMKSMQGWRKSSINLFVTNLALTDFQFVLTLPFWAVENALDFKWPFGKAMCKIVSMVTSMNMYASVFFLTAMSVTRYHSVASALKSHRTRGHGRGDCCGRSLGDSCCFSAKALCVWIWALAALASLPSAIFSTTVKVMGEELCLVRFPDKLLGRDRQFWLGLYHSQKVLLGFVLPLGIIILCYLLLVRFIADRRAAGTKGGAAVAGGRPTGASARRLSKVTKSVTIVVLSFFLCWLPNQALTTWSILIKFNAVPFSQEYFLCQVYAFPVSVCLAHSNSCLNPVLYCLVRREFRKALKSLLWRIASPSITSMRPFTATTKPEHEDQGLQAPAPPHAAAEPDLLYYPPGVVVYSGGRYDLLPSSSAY
Experimental: CHO-K1 cells were subcultured in clear 96 well plates (10,000 cells/well/200 μl media) and after 24 h, they were co-transfected with pCRE-8-galactosidase reporter plasmid. 24 hours later, cells were treated with 5 μM forskolin together with increasing concentration of relaxin-3 polypeptides. […] The stimulation was carried out for 6 h after which the media was aspirated and the cells were frozen at −80° C. overnight. The cells were thawed to room temperature and the amount of cAMP-induced β-galactosidase expression was measured by adding 25 μl of 0.1× buffer A (100 mM Na2HPO4 (pH 8.0), 2 mM MgSO4, 0.1 mM MnCl2) and shaking at room temperature for 10 minutes to hypotonically lyse the cells. Then 100 μl of buffer B (similar to buffer A with additional 0.5% Triton X-100 and 40 mM β-mercaptoethanol) was added to each well with shaking for 10 minutes at room temperature. Finally, 25 μl of substrate for 6-galactosidase (chlorophenol red β-D galactopyranoside) was added to each well with shaking until the colour change was observed. The absorbance was measured at 570 nm on Victor^3 plate reader (PerkinElmer, Glen Waverly, VIC). The data were analysed using GraphPad PRISM 4 (GraphPad Inc., San Diego, USA). […] Statistical analysis was carried out using one-way ANOVA with Bonferroni's multiple comparison test.

RXFP4 receptor [3] = molecular target: T3, RXFP4 receptor (UniProt Q8TDU9 1-374, limits assumed); assay: cell-based or functional assay
T3 sequence (Q8TDU9 whole entry): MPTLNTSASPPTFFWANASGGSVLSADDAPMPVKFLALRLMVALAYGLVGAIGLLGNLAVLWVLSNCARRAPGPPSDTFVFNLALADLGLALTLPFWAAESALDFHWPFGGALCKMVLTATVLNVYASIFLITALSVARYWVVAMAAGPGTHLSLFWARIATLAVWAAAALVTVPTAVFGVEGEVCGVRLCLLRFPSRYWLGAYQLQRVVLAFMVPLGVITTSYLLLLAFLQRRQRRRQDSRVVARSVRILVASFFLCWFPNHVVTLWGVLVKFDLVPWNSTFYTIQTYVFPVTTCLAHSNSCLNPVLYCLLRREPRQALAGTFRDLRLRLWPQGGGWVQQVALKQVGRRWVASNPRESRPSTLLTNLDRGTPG

RXFP4 receptor [4] = molecular target: T3, RXFP4 receptor; assay: competition with 2.5 nM Eu-labelled mouse INSL5 on CHO-K1 cells expressing RXFP4
RXFP1 receptor [5] = molecular target: T1, RXFP1 receptor; assay: competition with Eu-labelled H2 relaxin on HEK-293T cells expressing RXFP1
RXFP3 receptor [6] = molecular target: T4, RXFP3 receptor (UniProt Q9NSD7 1-469, limits assumed); assay: cell-based or functional assay
T4 sequence (looked up): T2 sequence (Q9NSD7 1-469)

RXFP3 receptor [7] = molecular target: T4, RXFP3 receptor; assay: cell-based or functional assay; remark: listed apart in the source
RXFP3 receptor [8] = molecular target: T4, RXFP3 receptor; assay: competition with 0.5 nM Eu-labelled INSL5A/H3 relaxinB on CHO-K1 cells expressing RXFP3

| Molecule | pEC50 (M), activation of RXFP4 (RXFP4 receptor [3]) | binding result (RXFP1 receptor [5]) | other results |
| --- | --- | --- | --- |
| H2 relaxin: native human relaxin-2, cognate ligand of RXFP1 (chain 1 QLYSALANKCCHVGCTKRSLARFC; chain 2 DSWMEEVIKLCGRELVRAQIAICGMSTWS) |  |  | inhibition of TGF-β1 induced collagen compared to TGF-β1 alone [1]: 35% |
| H2 relaxin (from UniProt P04090 162-185; P04090 25-53) (ligand) |  |  | inhibition of TGF-β1-induced collagen in human dermal fibroblasts (BJ3 cells) (RXFP1 receptor [2]): 35% |
| CC[C@H](C)[C@@H]1NC(=O)[C@H](Cc2ccccc2)NC(=O)[C@H](CCC(=O)O)NC(=O)[C@H](CCCNC(=N)N)NC(=O)CNC(=O)[C@@H](NC(=O)[C@H](CC(C)C)NC(=O)[C@H](CCCNC(=N)N)NC(=O)[C@@H](NC(=O)CNC(=O)[C@H](Cc2ccc(O)cc2)NC(=O)[C@@H]2CCCN2C(=O)[C@H](C)NC(=O)[C@H](C)NC(=O)[C@@H](N)CCCNC(=N)N)C(C)C)CSSC[C@@H]2NC(=O)[C@@H](NC(=O)[C@H](CO)NC(=O)[C@H](CO)NC(=O)[C@H](CO)NC(=O)[C@H](CC(C)C)NC(=O)CNC(=O)[C@H](C)NC(=O)[C@H](CC(C)C)NC(=O)[C@@H](NC(=O)[C@@H](N)CC(=O)O)C(C)C)CSSC[C@H](NC(=O)CNC(=O)[C@H](Cc3c[nH]c4ccccc34)NC(=O)[C@H](CCCCN)NC2=O)C(=O)N[C@@H](CO)C(=O)N[C@@H](CCCCN)C(=O)N[C@@H](CO)C(=O)N[C@@H](CCC(=O)O)C(=O)N[C@@H]([C@@H](C)CC)C(=O)N[C@@H](CO)C(=O)N[C@@H](CO)C(=O)N[C@@H](CC(C)C)C(=O)N[C@H](C(=O)O)CSSC[C@@H](C(=O)NCC(=O)NCC(=O)N[C@@H](CO)C(=O)N[C@@H](CCCNC(=N)N)C(=O)N[C@@H](Cc2c[nH]c3ccccc23)C(=O)O)NC(=O)[C@H]([C@@H](C)O)NC(=O)[C@H](Cc2ccccc2)NC(=O)[C@H]([C@@H](C)CC)NC(=O)[C@H](C(C)C)NC(=O)[C@H](C)NC(=O)[C@H](CCCNC(=N)N)NC1=O [H3 relaxin] |  |  | activity at 0.01 µM (RXFP3): ~50% |
| B1 | 8.51 M (as -log10) |  | pIC50 (RXFP4 receptor [4]): 7.33 M (as -log10) |
| B2 | 8.1 M (as -log10) | no binding (tested: <5 (pIC50/pKi, M)) |  |
| B3 | 7.7 M (as -log10) | no binding (tested: <5 (pIC50/pKi, M)) | pEC50, ERK1/2 phosphorylation in stable CHO-RXFP3 cells (AlphaScreen) (RXFP3 receptor [6]): 10.4 -log10 (M not printed); pIC50 (RXFP4 receptor [4]): 7.1 M (as -log10) |
| B4 | 7.85 M (as -log10) | no binding (tested: <5 (pIC50/pKi, M)) |  |
| B5 | 8.94 M (as -log10) |  | pEC50 (M), cAMP accumulation in HEK-293 cells expressing RXFP1 (RXFP1 receptor [2]): 8.74 M (as -log10) |
| B6 |  |  | pEC50 (M), cAMP accumulation in HEK-293 cells expressing RXFP1 (RXFP1 receptor [2]): 6.23 M (as -log10); pEC50 (M), inhibition of forskolin-induced cAMP, reporter gene assay in CHO-K1 cells expressing RXFP3 (RXFP3 receptor [7]): 7.9 M (as -log10); pKi (RXFP3 receptor [8]): 7.3 M (as -log10) |
| B7 | 8.46 M (as -log10) | no binding (tested: <5 (pIC50/pKi, M)) |  |
